Here are results for eight molecules from patent US11278600B2, “Human alpha-galactosidase variants” (Codexis, Inc., priority 2014, dated 2022).

Common to all, as to format: biochemical
Holding throughout (details): activity of the variant/activity of WT GLA (SEQ ID NO: 5), yeast supernatant

Data set [1] in a line: HTP-analysis of supernatants pretreated with base (MUGal hydrolysis). In a few lines: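 Fluorescence of released 4-MU (Ex 355 nm, Em 448 nm) after carbonate quench reports MUGal hydrolysis by GLA variants secreted from INVSc1 yeast. Before the acidic (pH 4.3-4.8) 30-180 min reaction at 37° C, supernatants had been pre-incubated at pH 7.0-9.7 for 1-18 h at 37° C.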
A short description of data set [2]: HTP-analysis of supernatants pretreated with acid (MUGal hydrolysis). The method in brief:
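Yeast INVSc1 supernatant, GLA variants; acid challenge: McIlvaine pH 3.3-4.3, 37° C., 1-3 h. Assay: MUGal in McIlvaine pH 4.8 plus citrate pH 4.3, 37° C., 30-180 min, Na2CO3 stop, Ex 355/Em 448 nm.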

Data set [3] in a line: HTP-analysis of yeast culture supernatants, no challenge (MUGal hydrolysis). The method in brief: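 GLA variants were expressed in INVSc1 yeast grown in SD-Ura broth with glucose at 30° C., and culture supernatants were collected after 66-84 h. Supernatant was mixed with McIlvaine buffer pH 4.8 and MUGal (2 mM stock) in 50 mM citrate, 200 mM KCl, pH 4.6, incubated at 37° C. for 30-180 minutes, then quenched with sodium carbonate.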

B1: 1 (protein)
chain: LDNGLARTPTMGWLHWERFMCNLDCQEEPDSCISEKLFMEMAELMVSEGWKDAGYEYLCIDDCWMAPQRDSEGRLQADPQRFPHGIRQLANYVHSKGLKLGIYADVGNKTCAGFPGSFGYYDIDAQTFADWGVDLLKFDGCYCDSLENLADGYKHMSLALNRTGRSIVYSCEWPLYMWPFQKPNYTEIRQYCNHWRNFADIDDSWKSIKSILDWTSFNQERIVDVAGPGGWNDPDMLVIGNFGLSWNQQVTQMALWAIMAAPLFMSNDLRHISPQAKALLQDKDVIAINQDPLGKQGYQLRQGDNFEVWERPLSGLAWAVAMINRQEIGGPRSYTISVASLGKGVACNPACFITQLLPVKRKLGFYEWTSRLRSHINPTGTVLLQLENTMQMSLKDLL
modifications: Synthetic Polypeptide sequence of Variant No. 1 of mature Human GLA
In the case of B1, the “Relative Activity of GLA Variants After Challenge at pH 7.0” value (shortened to “Relative Activity … at pH 7.0”) in data set [1] was “+ (+ = 0.5 to 1.5 relative activity over WT GLA (SEQ ID NO: 5))”. The “Relative Activity of GLA Variants After Challenge at pH 4.3” value (shortened to “Relative Activity … at pH 4.3”) in data set [2] was “+ (+ = 0.5 to 1.5 relative activity over WT GLA (SEQ ID NO: 5))”. For the same molecule, the “Relative Activity of GLA Variants After No Challenge (NC)” value in data set [3] is “+ (+ = 0.5 to 1.5 relative activity over WT GLA (SEQ ID NO: 5))”.

B2: 126 (protein)
chain: LDNGLARTPTMGWLHWERFMCNLDCQEEPDSCISEKLFMEMAELMVSEGWKDAGYEYLCIDDCWMAPQRDSEGRLQADPQRFPHGIRQLANYVHSKGLKLGIYADVGNKTCAGFPGSFGYYDIDAQTFADWGVDLLKFDGCYCDSLENLADGYKHMSLALNRTGRSIVYSCEWPLYMWPFQKPNYTEIRQYCNHWRNFADIDDSWKSIKSILDWTSFNQERIVDVAGPGGWNDPDMLVIGNFGLSWNQQVTQMALWAIMAAPLFMSNDLRHISPQAKALLQDKDVIAINQDPLGKQGYQLRQGDNFEVWERPLSGLAWAVAMINRQEIGGPRSYTIAVASLGKGVACNPACFITQLLPVKRKLGFYEWTSRLRSHINPTGTVLLQLENTDQMSKDLLL
modifications: Synthetic Polypeptide sequence of Variant No. 126 of mature Human GLA
As for B2, the “Relative Activity of GLA Variants After Challenge at pH 7.1” value (shortened to “Relative Activity … at pH 7.1”) in data set [1] is on record as “+++ (+++ = >2.5 relative activity over WT GLA (SEQ ID NO: 5))”. The “Relative Activity of GLA Variants After Challenge at pH 4.2” value (“Relative Activity … at pH 4.2” for short) in data set [2] was “+++ (+++ = >2.5 relative activity over WT GLA (SEQ ID NO: 5))”. Moreover, the “Relative Activity of GLA Variants After No Challenge (NC)” value in data set [3] was “+++ (+++ = >2.5 relative activity over WT GLA (SEQ ID NO: 5))”.

B3: 2 (protein)
chain: LDNGLARTPTMGWLHWERFMCNLDCQEEPDSCISEKLFMEMADLMVSEGWKDAGYEYLCIDDCWMAPQRDSEGRLQADPQRFPHGIRQLANYVHSKGLKLGIYADVGNKTCAGFPGSFGYYDIDAQTFADWGVDLLKFDGCYCDSLENLADGYKHMSLALNRTGRSIVYSCEWPLYMWPFQKPNYTEIRQYCNHWRNFADIDDSWKSIKSILDWTSFNQERIVDVAGPGGWNDPDMLVIGNFGLSWNQQVTQMALWAIMAAPLFMSNDLRHISPQAKALLQDKDVIAINQDPLGKQGYQLRQGDNFEVWERPLSGLAWAVAMINRQEIGGPRSYTIAVASLGKGVACNPACFITQLLPVKRKLGFYEWTSRLRSHINPTGTVLLQLENTMQMSLKDLL
modifications: Synthetic Polypeptide sequence of Variant No. 2 of mature Human GLA
Consider B3, for which the “Relative Activity … at pH 7.0” value in data set [1] is recorded as “+ (+ = 0.5 to 1.5 relative activity over WT GLA (SEQ ID NO: 5))”. The “Relative Activity … at pH 4.3” value in data set [2] is listed as “+ (+ = 0.5 to 1.5 relative activity over WT GLA (SEQ ID NO: 5))”. Moreover, the “Relative Activity of GLA Variants After No Challenge (NC)” value in data set [3] is recorded as “+ (+ = 0.5 to 1.5 relative activity over WT GLA (SEQ ID NO: 5))”.

B4: 124 (protein)
chain: LDNGLARTPTMGWLHWERFMCNLDCQEEPDSCISEKLFMEMAELMVSEGWKDAGYEYLCIDDCWMAPQRDSEGRLQADPQRFPHGIRQLANYVHSKGLKLGIYADVGNKTCAGFPGSFGYYDIDAQTFADWGVDLLKFDGCYCDSLENLADGYKHMSLALNRTGRSIVYSCEWPLYMWPFQKPNYTEIRQYCNHWRNFADIDDSWKSIKSILDWTSFNQERIVDVAGPGGWNDPDMLVIGNFGLSWNQQVTQFALWAIMAAPLFMSNDLRHISPQAKALLQDKDVIAINQDPLGKQGYQLRQGDNFEVWERPLSGLAWAVAMINRQEIGGPRSYTIAVASLGKGVACNPACFITQLLPVKRKLGFYEWTSRLRSHINPTGTVLLQLENTMQMSKDLLL
modifications: Synthetic Polypeptide sequence of Variant No. 124 of mature Human GLA
As to B4, in data set [1], the “Relative Activity … at pH 7.1” value was “+ (+ = 0.5 to 1.5 relative activity over WT GLA (SEQ ID NO: 5))”. Moreover, in data set [2], the “Relative Activity … at pH 4.2” value is given as “++ (++ = >1.5 to 2.5 relative activity over WT GLA (SEQ ID NO: 5))”. The “Relative Activity of GLA Variants After No Challenge (NC)” value in data set [3] is given as “++ (++ = >1.5 to 2.5 relative activity over WT GLA (SEQ ID NO: 5))”.

B5: 125 (protein)
chain: LDNGLARTPTMGWLHWERFMCNLDCQEEPDSCISEKLFMEMAELMVSEGWKDAGYEYLCIDDCWMAPQRDSEGRLQADPQRFPHGIRQLANYVHSKGLKLGIYADVGNKTCAGFPGSFGYYDIDAQTFADWGVDLLKFDGCYCDSLENLADGYKHMSLALNRTGRSIVYSCEWPLYMWPFQKPNYTEIRQYCNHWRNFADIDDSWKSIKSILDWTSFNQERIVDVAGPGGWNDPDMLVIGNFGLSWNQQVTQMALWAIMAAPLFMSNDLRHISPQAKALLQDKDVIAINQDPLGKQGYQLRQGDNFEVWERPLSGLAWAVAIINRQEIGGPRSYTIAVASLGKGVACNPACFITQLLPVKRKLGFYEWTSRLRSHINPTGTVLLQLENTMQMSKDLLL
modifications: Synthetic Polypeptide sequence of Variant No. 125 of mature Human GLA
On to B5, for which the “Relative Activity … at pH 7.1” value in data set [1] is “+ (+ = 0.5 to 1.5 relative activity over WT GLA (SEQ ID NO: 5))”. The “Relative Activity … at pH 4.2” value in data set [2] was “+ (+ = 0.5 to 1.5 relative activity over WT GLA (SEQ ID NO: 5))”. The “Relative Activity of GLA Variants After No Challenge (NC)” value in data set [3] is given as “+ (+ = 0.5 to 1.5 relative activity over WT GLA (SEQ ID NO: 5))”.

B6: 127 (protein)
chain: LDNGLARTPTMGWLHWERFMCNLDCQEEPDSCISEKLFMEMAELMVSEGWKDAGYEYLCIDDCWMAPQRDSEGRLQADPQRFPHGIRQLANYVHSKGLKLGIYADVGNKTCAGFPGSFGYYDIDAQTFADWGVDLLKFDGCYCDSLENLADGYKHMSLALNRTGRSIVYSCEWPLYMWPFQKPNYTEIRQYCNHWRNFADIDDSWKSIKSILDWTSFNQERIVDVAGPGGWNDPDMLVIGNFGLSWNQQVTQMALWAIMAAPLFMSNDLRHISPQAKALLQDKDVIAINQDPLGKQGYQLRQGDNFEVWERPLSGLAWAVAMINRQEIGGPRSYTIAVASLGKGVACNPACFITQLLPVKRKLGFYEWTSRLRSHINPTGTVLLQLENTRQMSKDLLL
modifications: Synthetic Polypeptide sequence of Variant No. 127 of mature Human GLA
For B6, the “Relative Activity … at pH 7.1” value in data set [1] is reported as “++ (++ = >1.5 to 2.5 relative activity over WT GLA (SEQ ID NO: 5))”. Further, the “Relative Activity … at pH 4.2” value in data set [2] was “++ (++ = >1.5 to 2.5 relative activity over WT GLA (SEQ ID NO: 5))”. Moreover, the “Relative Activity of GLA Variants After No Challenge (NC)” value in data set [3] is “++ (++ = >1.5 to 2.5 relative activity over WT GLA (SEQ ID NO: 5))”.

B7: 123 (protein)
chain: LDNGLARTPTMGWLHWERFDCNLDCQEEPDSCISEKLFMEMAELMVSEGWKDAGYEYLCIDDCWMAPQRDSEGRLQADPQRFPHGIRQLANYVHSKGLKLGIYADVGNKTCAGFPGSFGYYDIDAQTFADWGVDLLKFDGCYCDSLENLADGYKHMSLALNRTGRSIVYSCEWPLYMWPFQKPNYTEIRQYCNHWRNFADIDDSWKSIKSILDWTSFNQERIVDVAGPGGWNDPDMLVIGNFGLSWNQQVTQMALWAIMAAPLFMSNDLRHISPQAKALLQDKDVIAINQDPLGKQGYQLRKGDNFEVWERPLSGLAWAVAMINRQEIGGPRSYTIAVASLGKGVACNPACFITQLLPVKRKLGFYEWTSRLRSHINPTGTVLLQLENTMQMSKDLLL
modifications: Synthetic Polypeptide sequence of Variant No. 123 of mature Human GLA
B7: the “Relative Activity … at pH 7.1” value in data set [1] is on record as “− (− = <0.5 relative activity to WT GLA (SEQ ID NO: 5))”. Also, the “Relative Activity … at pH 4.2” value in data set [2] is reported as “+ (+ = 0.5 to 1.5 relative activity over WT GLA (SEQ ID NO: 5))”. The “Relative Activity of GLA Variants After No Challenge (NC)” value in data set [3] was “− (− = <0.5 relative activity to WT GLA (SEQ ID NO: 5))”.

B8: 32 (protein)
chain: LDNGLARTPTMGWLHWERFMCNLDCQEEPDSCISEKLFMEMAELMVSEGWKDAGYEYLCIDDCWMAPQRDSEGRLQADPQRFPHGIRQLANYVHSKGLKLGIYADVGNKTCAGFPGSFGYYDIDAQTFADWGVDLLKFDGCYCDSLENLADGYKHMSLALNRTGRSIVYSCEWPLYMWPFQKPNYTEIRQYCNHWRNFADIDDSWKSIKSILDWTSFNQERIVDVAGPGGWNDPDMLVIGNFGLSWNQQVTQMALWAIMAAPLFMSNDLRHISPQAKALLQDKDVIAINQDPLGKQGYQLRQGDNFEVWERPLSGLAWAVAMINRQEIGGPRSYTIAVASLGKGVACNPACFITQLLPVKRKLGFYEWTSRLKSHVNPTGTVLLQLENTMQMSLKDLLL
modifications: Synthetic Polypeptide sequence of Variant No. 32 of mature Human GLA
For the molecule B8, the “Relative Activity … at pH 7.0” value in data set [1] is “+ (+ = 0.5 to 1.5 relative activity over WT GLA (SEQ ID NO: 5))”. Further, the “Relative Activity … at pH 4.3” value in data set [2] is reported as “++ (++ = >1.5 to 2.5 relative activity over WT GLA (SEQ ID NO: 5))”. For the same molecule, the “Relative Activity of GLA Variants After No Challenge (NC)” value in data set [3] is reported as “+ (+ = 0.5 to 1.5 relative activity over WT GLA (SEQ ID NO: 5))”.
